Test results published in patent publication US20020045591A1, “Methods and therapeutic compositions for treating cancer” (priority 1998, published 2002).

T1: β-catenin (Cricetulus griseus, UniProt G3H996)
T1 construct: resulting from the stabilization of the endogenous β-catenin by the transfected cadherin derivatives; endogenous in cells; host or cells: CHO cells, stably or transiently transfected with cadherin derivatives only
T1 sequence (G3H996 1-781): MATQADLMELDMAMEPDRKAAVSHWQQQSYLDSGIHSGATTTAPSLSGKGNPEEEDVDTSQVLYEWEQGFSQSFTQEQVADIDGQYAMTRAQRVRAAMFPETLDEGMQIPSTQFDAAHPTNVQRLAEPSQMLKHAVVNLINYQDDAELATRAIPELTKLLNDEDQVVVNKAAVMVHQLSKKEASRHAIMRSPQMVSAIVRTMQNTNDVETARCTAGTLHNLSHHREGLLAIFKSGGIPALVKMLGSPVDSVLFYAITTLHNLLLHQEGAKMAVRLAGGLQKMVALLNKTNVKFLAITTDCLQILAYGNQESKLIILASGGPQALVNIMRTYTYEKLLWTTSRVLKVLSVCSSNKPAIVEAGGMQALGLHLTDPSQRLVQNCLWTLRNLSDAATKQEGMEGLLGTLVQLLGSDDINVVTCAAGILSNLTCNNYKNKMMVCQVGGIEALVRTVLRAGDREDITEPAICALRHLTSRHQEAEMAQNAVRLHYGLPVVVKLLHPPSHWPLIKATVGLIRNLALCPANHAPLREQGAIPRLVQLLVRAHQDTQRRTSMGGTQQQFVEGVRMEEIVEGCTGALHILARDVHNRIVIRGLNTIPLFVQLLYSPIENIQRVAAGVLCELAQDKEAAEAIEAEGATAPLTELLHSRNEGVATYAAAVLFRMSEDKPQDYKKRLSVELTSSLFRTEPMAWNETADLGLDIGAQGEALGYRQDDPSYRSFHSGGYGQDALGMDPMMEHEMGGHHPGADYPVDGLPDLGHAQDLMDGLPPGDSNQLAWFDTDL


Tests used:
[1] = tested on: LEF-1-driven transcription; experiment: LEF-1 consensus (TOPFLASH) transactivation in 293 cells; type: cell-based, human; settings: FIG. 18B
Method: (§1) Cell Culture and Transfections: Canine kidney epithelial cells MDCK, human fibrosarcoma HT1080, 293-T human embryonic kidney cells, Balb/C mouse 3T3 and human colon carcinoma SW480 cell lines were cultured in Dulbecco's modified Eagle's medium supplemented with 10% calf serum (Gibco, Grand Island, N.Y.) at 37° C. in the presence of 7% CO2. The human renal carcinoma cell line KTCTL60 was grown in RPMI medium and 10% calf serum. Cells were transiently transfected with the cDNA constructs described below, using Ca^2+-phosphate or lipofectamine (Gibco) and the expression of the transgene was assessed between 24 and 48 hours after transfection. In some experiments, the expression of the stably transfected NH2 terminus-deleted β-catenin (Δ57) was enhanced in HT1080 cells by overnight treatment with 2 mM sodium butyrate.
(§2) A plasmid encoding β-galactosidase (0.5 μg) was cotransfected to enable normalization for transfection efficiency. The relevant plasmid expressing catenin constructs (4.5 μg) was co-transfected with the reporter, or an empty expression vector was included. After 24-48 hours expression of the reporter (luciferase) and the control (β-galactosidase) genes were determined using enzyme assay systems from Promega (Madison, Wis.).

[2] = tested on: β-catenin-mediated transactivation; experiment: TOPFLASH/FOPFLASH luciferase transactivation in CHO cells; type: cell-based; settings: TOPFLASH with LEF-1 and β-catenin vs TOPFLASH and LEF-1 without β-catenin
Method: (§3) Cell culture and transfections: CHO and SW480 human colon carcinoma cells were cultured in Dulbecco's modified Eagle's medium containing 10% fetal calf serum in an 8% CO2 incubator at 37° C. Transfections were performed using Lipofectamine (Gibco, BRL, USA) according to the manufacturer's instructions. Stably transfected CHO clones were generated by co-transfection with a plasmid encoding the puromycin resistance gene. Two days after transfection, cells were replated in the presence of 10 μg/ml puromycin (Sigma, Holon, Israel). Stable clones were isolated 2 weeks later and tested for the expression of the transgene by Western blot analysis.
(§4) Transactivation assays: CHO cells were transfected with TOPFLASH or FOPFLASH vectors (van de Wetering et al., 1997, ibid) and with pCDNA3 coding for β-galactosidase to normalize for transfection efficiency. The transfection mixture also contained either β-catenin, LEF-1 or cadherin derivatives in different combinations, as indicated. SW480 cells were transfected with TOPFLASH and cadherin derivatives. […] The reactions were stopped with 1 M Na2CO3 and the absorbance at 420 nm was determined. […] The luciferase reaction was monitored by a TD-20e luminometer (Turner, USA) and normalized for the β-galactosidase activity. […]

CHO cells = experiment: Immunofluorescence localization in CHO cells; type: cell-based; settings: stably transfected CHO cells, FIG. 4
Source text: (§5) Immunofluorescence microscopy: Cells cultured on glass coverslips were fixed with 3% paraformaldehyde in phosphate-buffered saline (PBS) and permeabilized with 0.5% Triton X-100. CHO cells were immunofluorescently labeled as described (Levenberg S. et al. (1998) Long-range and selective autoregulation of cell-cell and cell-matrix adhesions by cadherin or integrin ligands. J. Cell Sci. 111:347-357). Nuclei were visualized using DAPI and the fluorescence was examined using a Zeiss Axiophot microscope and a x100/1.3 Planapochromat objective.

[3] = tested on: β-catenin-mediated transactivation; experiment: TOPFLASH luciferase transactivation in SW480 cells (Example 1); type: cell-based, human; settings: SW480 cells transfected with TOPFLASH and N-cadherin derivative, FIG. 6A
Method: as §3, §4

β-catenin [4] = target: T1, β-catenin; experiment: β-catenin level in CHO cells by Western blot; type: cell-based; settings: stably transfected CHO cells, FIG. 2A
Method: as §3
Immunoblotting and immunoprecipitation: The following antibodies were used: polyclonal pan-cadherin or monoclonal anti cadherin (CH-19) and polyclonal anti β-catenin antibodies were from Sigma (Holon, Israel). Monoclonal anti β-catenin, 5H10 (from M. Wheelock), anti IL2Rα (from UBI), anti flag (M2, from IBI), anti HA (clone 12CA5, from Boehringer Mannheim, Germany), anti GFP (polyclonal, from Clontech, Palo Alto, Calif.), anti LEF-1 (polyclonal, kindly provided by Dr. R. Grosschedl). […]

[5] = tested on: β-catenin-dependent transactivation; experiment: LEF-1 consensus luciferase transactivation in SW480 cells (Example 2); type: cell-based, human; settings: co-transfection, FIG. 19A
Method: as §1, §2

SW480 cells = experiment: Immunofluorescence localization in SW480 cells (Example 1); type: cell-based, human; settings: transfected SW480 cells, FIG. 6B
Source text: as §5

β-catenin [6] = target: T1, β-catenin; experiment: Co-immunoprecipitation of cadherin derivatives with β-catenin in CHO cells; type: binding; settings: stably transfected CHO cells, FIG. 2B
Source text: Immunoblotting and immunoprecipitation: The following antibodies were used: polyclonal pan-cadherin or monoclonal anti cadherin (CH-19) and polyclonal anti β-catenin antibodies were from Sigma (Holon, Israel). Monoclonal anti β-catenin, 5H10 (from M. Wheelock), anti IL2Rα (from UBI), anti flag (M2, from IBI), anti HA (clone 12CA5, from Boehringer Mannheim, Germany), anti GFP (polyclonal, from Clontech, Palo Alto, Calif.), anti LEF-1 (polyclonal, kindly provided by Dr. R. Grosschedl). Secondary antibodies for Western blotting were goat anti rabbit or anti mouse conjugated to HRP (Amersham, Buckinghampshire, UK), and for immunofluorescence analysis the secondary antibodies were FITC-goat anti mouse (Cappel, USA) or rhodamine-anti rabbit antibodies (from Jackson Immuno-Research, West Grove, Pa.). Cells were harvested in Laemmli's sample buffer and equal amounts of total cell protein from the different clones, or from transient transfections, were separated by SDS-PAGE, electrotransferred to nitrocellulose and incubated with the different antibodies. For immunoprecipitation, cells were harvested in IP buffer (20 mM Tris pH 8.0, 1% Triton X-100, 140 mM NaCl, 10% glycerol, 1 mM EGTA, 1.5 mM MgCl2, 1 mM DTT, 1 mM sodium vanadate, and 50 μg/ml PMSF). […]

Row | effect on β-catenin levels (β-catenin [4]) | interaction with β-catenin by co-immunoprecipitation (β-catenin [6]) | Molecule | activation of LEF-1-driven transcription [1] | increase in luciferase activity [2] | subcellular localization of cadherin derivative and β-catenin (CHO cells) | inhibition of TOPFLASH reporter (luciferase) activity [3] | effect on constitutive LEF-1 driven transcription [5] | subcellular localization of β-catenin (SW480 cells)
1 |  |  | β-catenin: transfected β-catenin cDNA construct (protein, UniProt P35222 2-781, looked up) Catenin beta-1: ATQADLMELDMAMEPDRKAAVSHWQQQSYLDSGIHSGATTTAPSLSGKGNPEEEDVDTSQVLYEWEQGFSQSFTQEQVADIDGQYAMTRAQRVRAAMFPETLDEGMQIPSTQFDAAHPTNVQRLAEPSQMLKHAVVNLINYQDDAELATRAIPELTKLLNDEDQVVVNKAAVMVHQLSKKEASRHAIMRSPQMVSAIVRTMQNTNDVETARCTAGTLHNLSHHREGLLAIFKSGGIPALVKMLGSPVDSVLFYAITTLHNLLLHQEGAKMAVRLAGGLQKMVALLNKTNVKFLAITTDCLQILAYGNQESKLIILASGGPQALVNIMRTYTYEKLLWTTSRVLKVLSVCSSNKPAIVEAGGMQALGLHLTDPSQRLVQNCLWTLRNLSDAATKQEGMEGLLGTLVQLLGSDDINVVTCAAGILSNLTCNNYKNKMMVCQVGGIEALVRTVLRAGDREDITEPAICALRHLTSRHQEAEMAQNAVRLHYGLPVVVKLLHPPSHWPLIKATVGLIRNLALCPANHAPLREQGAIPRLVQLLVRAHQDTQRRTSMGGTQQQFVEGVRMEEIVEGCTGALHILARDVHNRIVIRGLNTIPLFVQLLYSPIENIQRVAAGVLCELAQDKEAAEAIEAEGATAPLTELLHSRNEGVATYAAAVLFRMSEDKPQDYKKRLSVELTSSLFRTEPMAWNETADLGLDIGAQGEPLGYRQDDPSYRSFHSGGYGQDALGMDPMMEHEMGGHHPGADYPVDGLPDLGHAQDLMDGLPPGDSNQLAWFDTDL | potent transcriptional co-activator | about 5 fold |  |  |  | 
2 | increase in β-catenin levels | direct interaction | N-cadherin: Full length chicken N-cadherin cloned into the pECE expression vector (protein) DWVIPPINLPENSRGPFPQELVRIRSDRDKSLSLRYSVTGPGADQPPTGIFIINPISGQLSVTKPLDREQIASFHLRAHAVDVNGNQVENPIDIVINVIDMNDNRPEFLHQVWNGTVPEGSKPGTYVMTVTAIDADDPNAQNGMLRYRILSQAPSSPSPNMFTINNETGDIITVAAGLDREKVQQYTLIIQATDMEGNPTYGLSNTATAVITVTDVNDNPPEFTAMTFYGEVPENRVDVIVANLTVTDKDQPHTPAWNARYQMTGGDPTGQFTILTDPNSNDGLVTVVKPIDFETNRMFVLTVAAENQVPLAKGIQHPPQSTATVSITVIDVNESPYFVPNPKLVRQEEGLLAGSMLTTFTARDPDRYMQQTSLRYSKLSDPANWLKIDPVNGQITTTAVLDRESIYVQNNMYNATFLASDNGIPPMSGTGTLQIYLLDINDNAPQVNPKEATTCETLQPNAINITAVDPDIDPNAGPFAFELPDSPPSIKRNWTIVRISGDHAQLSLRIRFLEAGIYDVPIVITDSGNPHASSTSVLKVKVCQCDINGDCTDVDRIVGAGLGTGAIIAILLCIIILLILVLMFVVWMKRRDKERQAKQLLIDPEDDVRDNILKYDEEGGGEEDQDYDLSQLQQPDTVEPDAIKPVGIRRLDERPIHAEPQYPVRSAAPHPGDIGDFINEGLKAADNDPTAPPYDSLLVFDYEGSGSTAGSLSSLNSSSSGGEQDYDYLNDWGPRFKKLADMYGGGDD |  |  | mainly associated with cell-cell junctions | about 70% | effectively blocked | binding of the endogenous β-catenin to the plasma membrane
